The values that follow come from paper PMC7343719, “Immobilization of the Highly Active UDP-Glucose Pyrophosphorylase From Thermocrispum agreste Provides a Highly Efficient Biocatalyst for the Production of UDP-Glucose” (Frontiers in Bioengineering and Biotechnology, 2020).

In this test the target is UDP-glucose pyrophosphorylase from Thermocrispum agreste DSM 44070 (TaGalU) (Thermocrispum agreste DSM 44070). Put plainly: SEC; Superdex 200 10/300 GL 24 mL column, non-denaturing, 50 mM Hepes pH 7.0, 1 mM MgCl2; calibrated with protein standards.

Consider “UDP-glucose pyrophosphorylase from Thermocrispum agreste DSM 44070 (TaGalU) (enzyme)”, for which the stoichiometry N is 6.
